The values that follow come from patent CN109810193A (SHENZHEN INST ADV TECH, dated 2019).

One assay addresses sDR5-Fc-biotin (UniProt O14763). Description: competition ELISA: sDR5-Fc-biotin 7.5 ug/ml preincubated with 6C93D6 30 ug/ml, added to coated human TRAIL (5 ug/ml); Streptavidin-HRP; the OD is the remaining binding of the complex to TRAIL. (In general: In an ELISA, binding on a coated surface is turned into a signal by an enzyme label.)
The target of a further assay is T1, sDR5-Fc蛋白 (UniProt O14763 56-182, limits assumed).
T1 construct: Immunogen and BLI ligand; not shown: it was captured on AHC (Anti-hIgG Fc Capture) sensors
Put plainly: BLI (OCTET K2), sDR5-Fc 10 ug/ml captured on AHC sensors, 6C93D6 at 76-4.75 nM in solution.

The next assay concerns the target T2, 人DR4抗原 (human, UniProt O00220 24-239, limits assumed).
T2 construct: also called death receptor 4
T2 sequence (looked up): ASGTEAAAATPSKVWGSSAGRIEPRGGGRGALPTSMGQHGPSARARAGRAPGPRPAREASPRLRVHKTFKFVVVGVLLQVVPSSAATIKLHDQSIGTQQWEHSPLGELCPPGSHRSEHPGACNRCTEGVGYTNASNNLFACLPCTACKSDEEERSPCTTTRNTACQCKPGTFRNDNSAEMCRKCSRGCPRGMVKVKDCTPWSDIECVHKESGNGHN
Put plainly: ELISA, DR4 coated, goat anti-mouse IgG-HRP, OD450.

A further assay has as its target jurkat细胞表面的DR5蛋白 (UniProt O14763 56-440, limits assumed). Put plainly: cell-based or functional assay.

For orientation: Kd means the equilibrium constant for the complex coming apart. A lower Kd goes with a tighter complex.

B1: 6C93D6抗体 (抗DR5的单克隆抗体) (antibody, V domains shown)
VH: EVQLQQSGPDLVKPGASVKISCKASGYSFTGHYMHWVKQSHGQSLEWIGRVNPNNGGTGYNQKFKDKAILTVDKPSSTAYMELRSLTSEDSAVYYCARNGAYYRSDGNYFDYWGQGTTLTVSS
VL: DIVLTQSTPSLAVSLGQRATISCRASESVDSYGNSFMHWFQQKPGQPPKLLIYRASNLESGIPARFSGSGSRTDFTLTINPVEADDVATYYCQQSNEDPYTFGGGTKLEIK
notes: Mouse hybridoma monoclonal antibody purified from ascites on Protein G
B1: the OD450 in the assay with sDR5-Fc-biotin worked out at 0.105. Binding with sDR5-Fc蛋白 was put at a Kd of 6.77 nM. Also, the binding result with 人DR4抗原 is given as “no binding”. Moreover, in the assay with jurkat细胞表面的DR5蛋白, the “诱导HepaRG细胞凋亡的EC50 (1ug/ml交联剂 anti-mouse IgG Fc antibody; MTS/PMS, A490-A630)” value is 68.5 pg/mL and the “诱导HepaRG细胞凋亡的EC50 (无交联剂; MTS/PMS, A490-A630)” value is 1.1 µg/mL.
